Reference: PMC4666388

Biological target: GST-HP1α (full-length human heterochromatin protein 1 α with N-terminal GST) (human) (UniProt P45973)
Experiment: pull-down; GST-HP1 anchored on GSH-Sepharose (80 pmol), 1.2 μg native oligo-nucleosomes from HeLa; absence of MgCl2; 50 mM NaCl, 20 mM Tris-HCl pH 7.4, room temperature 30 min; H3K9me3 and H4 detected by western blot

UniProt P45973, sequence (P45973 whole entry): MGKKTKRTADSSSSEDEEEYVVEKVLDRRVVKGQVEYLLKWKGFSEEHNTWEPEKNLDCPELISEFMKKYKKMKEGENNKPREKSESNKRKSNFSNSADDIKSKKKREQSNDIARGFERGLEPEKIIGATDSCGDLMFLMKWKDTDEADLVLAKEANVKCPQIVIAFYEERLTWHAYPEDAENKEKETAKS

percent of input bound: 18 % of input
Substance: native oligo-nucleosomes prepared from HeLa cell nuclei (H3K9me3-nucleosomes detected) (complex)
